Measurements: article PMC10213058

Molecular target: mouse pendrin (SLC26A4), full length (mouse)
Assay: cryo-EM structure; single-particle cryo-EM of purified pendrin in 0.02% GDN, about 1.7 mg/mL, pH 8.0-8.3; samples in 150 mM NaCl (pendrin-Cl), NaHCO3 (pendrin-HCO3), Cl/HCO3, Cl/I and HCO3/I; symmetric and asymmetric homodimers

Substance: mouse pendrin (SLC26A4), full length (natural protein)
- stoichiometry N: 2
